We go through four sequences from the supplement of paper PMC5998384.

In data set [1] the test system is HeLa Kyoto. The data set is described as follows: thermal stability score vs G1/S (z-score of summed log2 fold changes over temperatures); higher = more thermally stable than in G1/S.
Data set [2] relates to HeLa Kyoto. Briefly: melting temperature (median over replicates), in situ; higher = more thermally stable.
The subject of data set [3] is HeLa Kyoto. The data set is described as follows: solubility change mitosis vs G1/S (difference of NP-40 vs SDS log2 ratios) (log2 ratio difference); higher = more soluble in mitosis.
Data set [4] relates to HeLa Kyoto. Briefly: solubility in G1/S (NP-40 vs SDS abundance) (log2 ratio); higher = more soluble. Conditions: cell cycle stage: G1/S.
Setting [5] is: cell cycle stage: early G1 (4.5 h after nocodazole release).
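Wherever melting temperature (median over replicates), in situ is given: HeLa Kyoto cells synchronized by double thymidine or nocodazole block, proteins quantified by TMT10plex mass spectrometry, three independent biological replicates.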
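Wherever solubility change mitosis vs G1/S (difference of NP-40 vs SDS log2 ratios) is given: synchronized HeLa Kyoto cells (double thymidine block for G1/S, nocodazole release for mitosis), protein amounts in NP-40 versus SDS lysates quantified by mass spectrometry, three biological replicates.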
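Wherever solubility in G1/S (NP-40 vs SDS abundance) is given: HeLa Kyoto cells arrested at G1/S by double thymidine block, proteins quantified by TMT10plex mass spectrometry in mild NP-40 versus SDS extracts, three biological replicates.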
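Wherever thermal stability score vs G1/S (z-score of summed log2 fold changes over temperatures) is given: synchronized HeLa Kyoto cells, proteins quantified by TMT10plex mass spectrometry, three biological replicates, mitosis taken 0.5 h after nocodazole release, G1/S directly after double thymidine block.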

Consider “MAFANFRRILRLSTFEKRKSREYEHVRRDLDPNEVWEIVGELGDGAFGKVYKAKNKETGALAAAKVIETKSEEELEDYIVEIEILATCDHPYIVKLLGAYYHDGKLWIMIEFCPGGAVDAIMLELDRGLTEPQIQVVCRQMLEALNFLHSKRIIHRDLKAGNVLMTLEGDIRLADFGVSAKNLKTLQKRDSFIGTPYWMAPEVVMCETMKDTPYDYKADIWSLGITLIEMAQIEPPHHELNPMRVLLKIAKSDPPTLLTPSKWSVEFRDFLKIALDKNPETRPSAAQLLEHPFVSSITSNKALRELVAEAKAEVMEEIEDGRDEGEEEDAVDAASTLENHTQNSSEVSPPSLNADKPLEESPSTPLAPSQSQDSVNEPCSQPSGDRSLQTTSPPVVAPGNENGLAVPVPLRKSRPVSMDARIQVAQEKQVAEQGGDLSPAANRSQKASQSRPNSSALETLGGEKLANGSLEPPAQAAPGPSKRDSDCSSLCTSESMDYGTNLSTDLSLNKEMGSLSIKDPKLYKKTLKRTRKFVVDGVEVSITTSKIISEDEKKDEEMRFLRRQELRELRLLQKEEHRNQTQLSNKHELQLEQMHKRFEQEINAKKKFFDTELENLERQQKQQVEKMEQDHAVRRREEARRIRLEQDRDYTRFQEQLKLMKKEVKNEVEKLPRQQRKESMKQKMEEHTQKKQLLDRDFVAKQKEDLELAMKRLTTDNRREICDKERECLMKKQELLRDREAALWEMEEHQLQERHQLVKQQLKDQYFLQRHELLRKHEKEREQMQRYNQRMIEQLKVRQQQEKARLPKIQRSEGKTRMAMYKKSLHINGGGSAAEQREKIKQFSQQEEKRQKSERLQQQQKHENQMRDMLAQCESNMSELQQLQNEKCHLLVEHETQKLKALDESHNQNLKEWRDKLRPRKKALEEDLNQKKREQEMFFKLSEEAECPNPSTPSKAAKFFPYSSADAS [STK10]”, for which the thermal stability score in the data set on HeLa Kyoto [1] (setting [5]) came out at 1.19; in the data set with HeLa Kyoto [1] (cell cycle stage: mitosis) it was 2.43. Moreover, the values for the melting temperature in the data set with HeLa Kyoto [2] (cell cycle stage: G1/S) and with HeLa Kyoto [2] (cell cycle stage: mitosis) were 48.1 °C and 48.2 °C, respectively. In the data set with HeLa Kyoto [3], the “solubility change mitosis (log2)” value was -0.0397. For the same sequence, the “solubility in G1/S (log2)” value with HeLa Kyoto [4] came out at 0.0626.

Regarding “MAFNFGAPSGTSGTAAATAAPAGGFGGFGTTSTTAGSAFSFSAPTNTGTTGLFGGTQNKGFGFGTGFGTTTGTSTGLGTGLGTGLGFGGFNTQQQQQTTLGGLFSQPTQAPTQSNQLINTASALSAPTLLGDERDAILAKWNQLQAFWGTGKGYFNNNIPPVEFTQENPFCRFKAVGYSCMPSNKDEDGLVVLVFNKKETEIRSQQQQLVESLHKVLGGNQTLTVNVEGTKTLPDDQTEVVIYVVERSPNGTSRRVPATTLYAHFEQANIKTQLQQLGVTLSMTRTELSPAQIKQLLQNPPAGVDPIIWEQAKVDNPDSEKLIPVPMVGFKELLRRLKVQDQMTKQHQTRLDIISEDISELQKNQTTSVAKIAQYKRKLMDLSHRTLQVLIKQEIQRKSGYAIQADEEQLRVQLDTIQGELNAPTQFKGRLNELMSQIRMQNHFGAVRSEERYYIDADLLREIKQHLKQQQEGLSHLISIIKDDLEDIKLVEHGLNETIHIRGGVFS [NUP54]”, the thermal stability score in the data set on HeLa Kyoto [1] (setting [5]) is -3.43; with HeLa Kyoto [1] (cell cycle stage: mitosis), -5.53. Also, the melting temperature with HeLa Kyoto [2] (cell cycle stage: G1/S) was determined as 51.5 °C; with HeLa Kyoto [2] (cell cycle stage: mitosis) it was 49 °C. The “solubility change mitosis (log2)” value in the data set on HeLa Kyoto [3] came out at 0.0698. Moreover, in the data set with HeLa Kyoto [4], the “solubility in G1/S (log2)” value is 0.299.

For “MAFPPRRRLRLGPRGLPLLLSGLLLPLCRAFNLDVDSPAEYSGPEGSYFGFAVDFFVPSASSRMFLLVGAPKANTTQPGIVEGGQVLKCDWSSTRRCQPIEFDATGNRDYAKDDPLEFKSHQWFGASVRSKQDKILACAPLYHWRTEMKQEREPVGTCFLQDGTKTVEYAPCRSQDIDADGQGFCQGGFSIDFTKADRVLLGGPGSFYWQGQLISDQVAEIVSKYDPNVYSIKYNNQLATRTAQAIFDDSYLGYSVAVGDFNGDGIDDFVSGVPRAARTLGMVYIYDGKNMSSLYNFTGEQMAAYFGFSVAATDINGDDYADVFIGAPLFMDRGSDGKLQEVGQVSVSLQRASGDFQTTKLNGFEVFARFGSAIAPLGDLDQDGFNDIAIAAPYGGEDKKGIVYIFNGRSTGLNAVPSQILEGQWAARSMPPSFGYSMKGATDIDKNGYPDLIVGAFGVDRAILYRARPVITVNAGLEVYPSILNQDNKTCSLPGTALKVSCFNVRFCLKADGKGVLPRKLNFQVELLLDKLKQKGAIRRALFLYSRSPSHSKNMTISRGGLMQCEELIAYLRDESEFRDKLTPITIFMEYRLDYRTAADTTGLQPILNQFTPANISRQAHILLDCGEDNVCKPKLEVSVDSDQKKIYIGDDNPLTLIVKAQNQGEGAYEAELIVSIPLQADFIGVVRNNEALARLSCAFKTENQTRQVVCDLGNPMKAGTQLLAGLRFSVHQQSEMDTSVKFDLQIQSSNLFDKVSPVVSHKVDLAVLAAVEIRGVSSPDHVFLPIPNWEHKENPETEEDVGPVVQHIYELRNNGPSSFSKAMLHLQWPYKYNNNTLLYILHYDIDGPMNCTSDMEINPLRIKISSLQTTEKNDTVAGQGERDHLITKRDLALSEGDIHTLGCGVAQCLKIVCQVGRLDRGKSAILYVKSLLWTETFMNKENQNHSYSLKSSASFNVIEFPYKNLPIEDITNSTLVTTNVTWGIQPAPMPVPVWVIILAVLAGLLLLAVLVFVMYRMGFFKRVRPPQEEQEREQLQPHENGEGNSET [ITGAV]”, the figures for the thermal stability score in the data set with HeLa Kyoto [1] (setting [5]) and with HeLa Kyoto [1] (cell cycle stage: mitosis) were -1.75 and -1.34, respectively. The melting temperature with HeLa Kyoto [2] (cell cycle stage: G1/S) turned out to be 56 °C; in the data set on HeLa Kyoto [2] (cell cycle stage: mitosis), 54.8 °C. In the data set on HeLa Kyoto [3], the “solubility change mitosis (log2)” value is -0.152. In addition, the “solubility in G1/S (log2)” value with HeLa Kyoto [4] was 0.295.

For “MAFRGWRPPPPPLLLLLLWVTGQAAPVAGLGSDAELQIERRFVPDECPRTVRSGDFVRYHYVGTFPDGQKFDSSYDRDSTFNVFVGKGQLITGMDQALVGMCVNERRFVKIPPKLAYGNEGVSGVIPPNSVLHFDVLLMDIWNSEDQVQIHTYFKPPSCPRTIQVSDFVRYHYNGTFLDGTLFDSSHNRMKTYDTYVGIGWLIPGMDKGLLGMCVGEKRIITIPPFLAYGEDGDGKDIPGQASLVFDVALLDLHNPKDSISIENKVVPENCERISQSGDFLRYHYNGTLLDGTLFDSSYSRNRTFDTYIGQGYVIPGMDEGLLGVCIGEKRRIVVPPHLGYGEEGRGNIPGSAVLVFDIHVIDFHNPSDSISITSHYKPPDCSVLSKKGDYLKYHYNASLLDGTLLDSTWNLGKTYNIVLGSGQVVLGMDMGLREMCVGEKRTVIIPPHLGYGEAGVDGEVPGSAVLVFDIELLELVAGLPEGYMFIWNGEVSPNLFEEIDKDGNGEVLLEEFSEYIHAQVASGKGKLAPGFDAELIVKNMFTNQDRNGDGKVTAEEFKLKDQEAKHDEL [FKBP9]”, the results for the thermal stability score in the data set on HeLa Kyoto [1] (setting [5]) and with HeLa Kyoto [1] (cell cycle stage: mitosis) were 4.29 and 4.83, respectively. Moreover, the values for the melting temperature with HeLa Kyoto [2] (cell cycle stage: G1/S) and in the data set on HeLa Kyoto [2] (cell cycle stage: mitosis) were 53.7 °C and 54.5 °C, respectively. For the same sequence, the “solubility change mitosis (log2)” value with HeLa Kyoto [3] was -0.0483. Moreover, in the data set on HeLa Kyoto [4], the “solubility in G1/S (log2)” value came to 0.21.
